For one substance, in vitro neutralization of IL-12 (times (against the anti-p35 mAb)) results are on record in patent publication US7807471.

This assay addresses recombinant murine IL-12 (R&D Systems) (murine) (UniProt P43431). Description: cell-based or functional assay.

Consider “C17.8 (rat anti-mouse IL-12/IL-23p40, IgG2a) (antibody)”, for which the in vitro neutralization of IL-12 (times (against the anti-p35 mAb)) turned out to be 5.
